Numbered stars: 1 amine (or outer) side, 2 acyl side, 3 side chain; on linkers, the order of the positions; unused ones are H or OH. Bridge positions count the residues as written; N and C are the ends. Side chains are listed from the residue outwards. Ends that are not written are not given here. * marks the point of attachment. C20 diacid = O=C(O)CCCCCCCCCCCCCCCCCCC(=O)*; γGlu = O=C(O)[C@H](CCC(=O)[*:2])N[*:1]
T1: rat amylin receptor (rat calcitonin receptor + rat RAMP 3) (rat, UniProt P32214 25-516; Q9JJ73 23-147)
T1 construct: whole, on cells; Membranes of transiently transfected BHK tk'ts 13 cells; also called rAmylin-R; rat amylin 3(a) receptor
T1 sequence (looked up) 1: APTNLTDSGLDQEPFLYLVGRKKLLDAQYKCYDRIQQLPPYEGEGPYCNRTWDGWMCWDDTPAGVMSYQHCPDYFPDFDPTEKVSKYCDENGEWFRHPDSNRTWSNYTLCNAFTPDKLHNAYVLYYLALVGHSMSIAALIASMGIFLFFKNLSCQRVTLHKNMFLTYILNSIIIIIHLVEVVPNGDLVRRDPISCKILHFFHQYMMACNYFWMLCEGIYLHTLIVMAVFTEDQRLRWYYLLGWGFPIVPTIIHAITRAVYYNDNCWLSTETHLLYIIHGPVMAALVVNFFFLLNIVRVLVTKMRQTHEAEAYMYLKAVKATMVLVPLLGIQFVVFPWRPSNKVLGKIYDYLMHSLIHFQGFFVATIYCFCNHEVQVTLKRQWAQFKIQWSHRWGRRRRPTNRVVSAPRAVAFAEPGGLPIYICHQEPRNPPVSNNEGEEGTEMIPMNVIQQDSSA
T1 sequence (looked up) 2: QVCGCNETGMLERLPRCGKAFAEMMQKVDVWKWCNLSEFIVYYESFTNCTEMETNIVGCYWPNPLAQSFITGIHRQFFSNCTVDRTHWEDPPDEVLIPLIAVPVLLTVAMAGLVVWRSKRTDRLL

T2: human calcitonin receptor (human, UniProt P30988 25-474)
T2 construct: whole, on cells; Membranes of stably transfected cells; also called hCTR; hCT
T2 sequence (looked up): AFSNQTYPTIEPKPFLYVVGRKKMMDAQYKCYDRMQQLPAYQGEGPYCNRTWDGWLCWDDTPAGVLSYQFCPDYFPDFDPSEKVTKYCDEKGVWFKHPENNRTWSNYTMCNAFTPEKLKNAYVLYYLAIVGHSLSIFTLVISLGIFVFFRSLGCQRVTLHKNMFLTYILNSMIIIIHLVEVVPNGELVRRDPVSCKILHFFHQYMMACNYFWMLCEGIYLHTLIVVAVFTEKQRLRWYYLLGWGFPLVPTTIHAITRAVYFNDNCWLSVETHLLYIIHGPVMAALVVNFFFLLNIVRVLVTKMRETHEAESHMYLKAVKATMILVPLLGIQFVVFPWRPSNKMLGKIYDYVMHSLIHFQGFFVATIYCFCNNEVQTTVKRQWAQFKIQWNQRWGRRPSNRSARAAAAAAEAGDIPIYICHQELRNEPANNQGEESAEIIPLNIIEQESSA

T3: rat calcitonin receptor (rat, UniProt P32214 25-516)
T3 construct: whole, on cells; Membranes of transiently transfected BHK tk'ts 13 cells; also called rCTR; rat calcitonin (a) receptor
T3 sequence (looked up): T1 sequence (looked up) 1

B1: N^ε1-[(4S)-4-carboxy-4-(19-carboxynonadecanoylamino)butanoyl]-[Glu14,Arg17,Pro21,Pro27,Pro34,Glu35]-h-amylin (peptide)
peptide: K([γGlu-C20 diacid])CNTATCATQRLAEFLRHSSPNFGAIPSSTNVGPETY-NH2
modifications: disulfide 2-7; N-terminus assumed
SMILES: CC[C@H](C)[C@H](NC(=O)[C@H](C)NC(=O)CNC(=O)[C@H](Cc1ccccc1)NC(=O)[C@H](CC(N)=O)NC(=O)[C@@H]1CCCN1C(=O)[C@H](CO)NC(=O)[C@H](CO)NC(=O)[C@H](Cc1c[nH]cn1)NC(=O)[C@H](CCCNC(=N)N)NC(=O)[C@H](CC(C)C)NC(=O)[C@H](Cc1ccccc1)NC(=O)[C@H](CCC(=O)O)NC(=O)[C@H](C)NC(=O)[C@H](CC(C)C)NC(=O)[C@H](CCCNC(=N)N)NC(=O)[C@H](CCC(N)=O)NC(=O)[C@@H](NC(=O)[C@H](C)NC(=O)[C@@H]1CSSC[C@H](NC(=O)[C@@H](N)CCCCNC(=O)CC[C@H](NC(=O)CCCCCCCCCCCCCCCCCCC(=O)O)C(=O)O)C(=O)N[C@@H](CC(N)=O)C(=O)N[C@@H]([C@@H](C)O)C(=O)N[C@@H](C)C(=O)N[C@@H]([C@@H](C)O)C(=O)N1)[C@@H](C)O)C(=O)N1CCC[C@H]1C(=O)N[C@@H](CO)C(=O)N[C@@H](CO)C(=O)N[C@H](C(=O)N[C@@H](CC(N)=O)C(=O)N[C@H](C(=O)NCC(=O)N1CCC[C@H]1C(=O)N[C@@H](CCC(=O)O)C(=O)N[C@H](C(=O)N[C@@H](Cc1ccc(O)cc1)C(N)=O)[C@@H](C)O)C(C)C)[C@@H](C)O
notes: Synthetic acylated analogue of human amylin
B2: N^-1-[(4S)-4-carboxy-4-(19-carboxynonadecanoylamino)butanoyl]-Gly[Arg1,His14,Arg17,Pro21,Pro27,His34]-h-amylin (peptide)
peptide: {C20 diacid-γGlu}-GRCNTATCATQRLAHFLRHSSPNFGAIPSSTNVGHNTY-NH2
modifications: disulfide 3-8
SMILES: CC[C@H](C)[C@H](NC(=O)[C@H](C)NC(=O)CNC(=O)[C@H](Cc1ccccc1)NC(=O)[C@H](CC(N)=O)NC(=O)[C@@H]1CCCN1C(=O)[C@H](CO)NC(=O)[C@H](CO)NC(=O)[C@H](Cc1c[nH]cn1)NC(=O)[C@H](CCCNC(=N)N)NC(=O)[C@H](CC(C)C)NC(=O)[C@H](Cc1ccccc1)NC(=O)[C@H](Cc1c[nH]cn1)NC(=O)[C@H](C)NC(=O)[C@H](CC(C)C)NC(=O)[C@H](CCCNC(=N)N)NC(=O)[C@H](CCC(N)=O)NC(=O)[C@@H](NC(=O)[C@H](C)NC(=O)[C@@H]1CSSC[C@H](NC(=O)[C@H](CCCNC(=N)N)NC(=O)CNC(=O)CC[C@H](NC(=O)CCCCCCCCCCCCCCCCCCC(=O)O)C(=O)O)C(=O)N[C@@H](CC(N)=O)C(=O)N[C@@H]([C@@H](C)O)C(=O)N[C@@H](C)C(=O)N[C@@H]([C@@H](C)O)C(=O)N1)[C@@H](C)O)C(=O)N1CCC[C@H]1C(=O)N[C@@H](CO)C(=O)N[C@@H](CO)C(=O)N[C@H](C(=O)N[C@@H](CC(N)=O)C(=O)N[C@H](C(=O)NCC(=O)N[C@@H](Cc1c[nH]cn1)C(=O)N[C@@H](CC(N)=O)C(=O)N[C@H](C(=O)N[C@@H](Cc1ccc(O)cc1)C(N)=O)[C@@H](C)O)C(C)C)[C@@H](C)O
notes: Synthetic acylated analogue of human amylin, extended by Gly at position -1; also called compound 100
B3: N^-1-[(4S)-4-carboxy-4-(19-carboxynonadecanoylamino)butanoyl]-Gly[Arg1,His14,Arg17,Pro21,Pro27,Pro34]-h-amylin (peptide)
peptide: {C20 diacid-γGlu}-GRCNTATCATQRLAHFLRHSSPNFGAIPSSTNVGPNTY-NH2
modifications: disulfide 3-8
SMILES: CC[C@H](C)[C@H](NC(=O)[C@H](C)NC(=O)CNC(=O)[C@H](Cc1ccccc1)NC(=O)[C@H](CC(N)=O)NC(=O)[C@@H]1CCCN1C(=O)[C@H](CO)NC(=O)[C@H](CO)NC(=O)[C@H](Cc1c[nH]cn1)NC(=O)[C@H](CCCNC(=N)N)NC(=O)[C@H](CC(C)C)NC(=O)[C@H](Cc1ccccc1)NC(=O)[C@H](Cc1c[nH]cn1)NC(=O)[C@H](C)NC(=O)[C@H](CC(C)C)NC(=O)[C@H](CCCNC(=N)N)NC(=O)[C@H](CCC(N)=O)NC(=O)[C@@H](NC(=O)[C@H](C)NC(=O)[C@@H]1CSSC[C@H](NC(=O)[C@H](CCCNC(=N)N)NC(=O)CNC(=O)CC[C@H](NC(=O)CCCCCCCCCCCCCCCCCCC(=O)O)C(=O)O)C(=O)N[C@@H](CC(N)=O)C(=O)N[C@@H]([C@@H](C)O)C(=O)N[C@@H](C)C(=O)N[C@@H]([C@@H](C)O)C(=O)N1)[C@@H](C)O)C(=O)N1CCC[C@H]1C(=O)N[C@@H](CO)C(=O)N[C@@H](CO)C(=O)N[C@H](C(=O)N[C@@H](CC(N)=O)C(=O)N[C@H](C(=O)NCC(=O)N1CCC[C@H]1C(=O)N[C@@H](CC(N)=O)C(=O)N[C@H](C(=O)N[C@@H](Cc1ccc(O)cc1)C(N)=O)[C@@H](C)O)C(C)C)[C@@H](C)O
notes: Synthetic acylated analogue of human amylin, extended by Gly at position -1
B4: N^-1-[(4S)-4-carboxy-4-(19-carboxynonadecanoylamino)butanoyl]-Gly[Arg1,Ala14,Arg17,Pro21,Pro27,Pro34]-h-amylin (peptide)
peptide: {C20 diacid-γGlu}-GRCNTATCATQRLAAFLRHSSPNFGAIPSSTNVGPNTY-NH2
modifications: disulfide 3-8
notes: as for B3
B5: N^-1-[(4S)-4-carboxy-4-(19-carboxynonadecanoylamino)butanoyl]-Gly[Arg1,Ala14,Arg17,Pro21,Pro27,His34]-h-amylin (peptide)
peptide: {C20 diacid-γGlu}-GRCNTATCATQRLAAFLRHSSPNFGAIPSSTNVGHNTY-NH2
modifications: disulfide 3-8
SMILES: CC[C@H](C)[C@H](NC(=O)[C@H](C)NC(=O)CNC(=O)[C@H](Cc1ccccc1)NC(=O)[C@H](CC(N)=O)NC(=O)[C@@H]1CCCN1C(=O)[C@H](CO)NC(=O)[C@H](CO)NC(=O)[C@H](Cc1c[nH]cn1)NC(=O)[C@H](CCCNC(=N)N)NC(=O)[C@H](CC(C)C)NC(=O)[C@H](Cc1ccccc1)NC(=O)[C@H](C)NC(=O)[C@H](C)NC(=O)[C@H](CC(C)C)NC(=O)[C@H](CCCNC(=N)N)NC(=O)[C@H](CCC(N)=O)NC(=O)[C@@H](NC(=O)[C@H](C)NC(=O)[C@@H]1CSSC[C@H](NC(=O)[C@H](CCCNC(=N)N)NC(=O)CNC(=O)CC[C@H](NC(=O)CCCCCCCCCCCCCCCCCCC(=O)O)C(=O)O)C(=O)N[C@@H](CC(N)=O)C(=O)N[C@@H]([C@@H](C)O)C(=O)N[C@@H](C)C(=O)N[C@@H]([C@@H](C)O)C(=O)N1)[C@@H](C)O)C(=O)N1CCC[C@H]1C(=O)N[C@@H](CO)C(=O)N[C@@H](CO)C(=O)N[C@H](C(=O)N[C@@H](CC(N)=O)C(=O)N[C@H](C(=O)NCC(=O)N[C@@H](Cc1c[nH]cn1)C(=O)N[C@@H](CC(N)=O)C(=O)N[C@H](C(=O)N[C@@H](Cc1ccc(O)cc1)C(N)=O)[C@@H](C)O)C(C)C)[C@@H](C)O
notes: as for B3
B6: N{-1}-[(4S)-4-carboxy-4-(19-carboxynonadecanoylamino)butanoyl]-Gly[Arg1,His14,Arg17,Pro21,Pro27]-h-amylin (peptide)
peptide: {C20 diacid-γGlu}-GRCNTATCATQRLAHFLRHSSPNFGAIPSSTNVGSNTY-NH2
modifications: disulfide 3-8
SMILES: CC[C@H](C)[C@H](NC(=O)[C@H](C)NC(=O)CNC(=O)[C@H](Cc1ccccc1)NC(=O)[C@H](CC(N)=O)NC(=O)[C@@H]1CCCN1C(=O)[C@H](CO)NC(=O)[C@H](CO)NC(=O)[C@H](Cc1c[nH]cn1)NC(=O)[C@H](CCCNC(=N)N)NC(=O)[C@H](CC(C)C)NC(=O)[C@H](Cc1ccccc1)NC(=O)[C@H](Cc1c[nH]cn1)NC(=O)[C@H](C)NC(=O)[C@H](CC(C)C)NC(=O)[C@H](CCCNC(=N)N)NC(=O)[C@H](CCC(N)=O)NC(=O)[C@@H](NC(=O)[C@H](C)NC(=O)[C@@H]1CSSC[C@H](NC(=O)[C@H](CCCNC(=N)N)NC(=O)CNC(=O)CC[C@H](NC(=O)CCCCCCCCCCCCCCCCCCC(=O)O)C(=O)O)C(=O)N[C@@H](CC(N)=O)C(=O)N[C@@H]([C@@H](C)O)C(=O)N[C@@H](C)C(=O)N[C@@H]([C@@H](C)O)C(=O)N1)[C@@H](C)O)C(=O)N1CCC[C@H]1C(=O)N[C@@H](CO)C(=O)N[C@@H](CO)C(=O)N[C@H](C(=O)N[C@@H](CC(N)=O)C(=O)N[C@H](C(=O)NCC(=O)N[C@@H](CO)C(=O)N[C@@H](CC(N)=O)C(=O)N[C@H](C(=O)N[C@@H](Cc1ccc(O)cc1)C(N)=O)[C@@H](C)O)C(C)C)[C@@H](C)O
notes: Synthetic acylated analogue of human amylin, extended by Gly at position -1; also called compound 99

biological target: T1, rat amylin receptor (rat calcitonin …); test: SPA competition with 125I-rat amylin on membranes of BHK tk'ts 13 cells with rat calcitonin receptor + rat RAMP3 (Assay VI)

Binder | IC50 [nM]
B1 | 0.164
B2 | 11.2
B3 | 0.674
B4 | 0.436
B5 | 8.07
B6 | 2.7

biological target: T2, human calcitonin receptor; test: ratio of IC50 on human calcitonin receptor to IC50 on human amylin receptor (reference m42), SPA competition
Summary of the method: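 Membranes (35 ng/μL final) + SPA beads, 50 mM Hepes pH 7.4 buffer with 1 mM CaCl2, 5 mM MgCl₂, 0.1% OA, 0.02% Tween20; 120 min, 25° C, shaking; centrifuged, counted; IC₅₀ by one-site binding competition.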

Binder | Ratio hCT/hAmylin binding
B1 | 13.3
B2 | 65.3
B3 | 36.2
B4 | 26.5
B5 | 68.6
B6 | 100

biological target: T3, rat calcitonin receptor; test: SPA competition with 125I-calcitonin on membranes of BHK tk'ts 13 cells with rat calcitonin receptor (Assay VIII)

Binder | IC50 [nM]
B1 | 10.4
B2 | 311
B3 | 65.9
B4 | 56.3
B5 | 492
B6 | 216

biological target: T3, rat calcitonin receptor; test: ratio of IC50 on rat calcitonin receptor to IC50 on rat amylin receptor (reference m40)

Binder | Ratio rCT/rAmylin binding
B1 | 63.2
B2 | 27.7
B3 | 97.7
B4 | 129
B5 | 60.9
B6 | 79.8
